Data from patent publication US20120208765.

How the values were obtained:
[1] = biological target: T1, human agrinC44 y4z8
T1 chain: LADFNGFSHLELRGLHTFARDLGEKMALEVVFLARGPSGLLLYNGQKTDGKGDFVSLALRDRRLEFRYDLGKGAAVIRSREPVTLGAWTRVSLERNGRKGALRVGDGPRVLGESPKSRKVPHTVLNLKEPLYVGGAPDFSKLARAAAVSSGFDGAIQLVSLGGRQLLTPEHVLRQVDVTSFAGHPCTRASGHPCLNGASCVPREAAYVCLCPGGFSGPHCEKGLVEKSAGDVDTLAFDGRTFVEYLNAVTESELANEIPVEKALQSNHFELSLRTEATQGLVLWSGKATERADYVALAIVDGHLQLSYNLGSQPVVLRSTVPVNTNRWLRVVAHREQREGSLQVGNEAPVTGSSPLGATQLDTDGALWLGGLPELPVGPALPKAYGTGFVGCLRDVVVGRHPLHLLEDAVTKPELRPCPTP

[2] = biological target: T2, neurotrypsin-resistant human agrin C44 y0z8K/A (h)
T2 chain: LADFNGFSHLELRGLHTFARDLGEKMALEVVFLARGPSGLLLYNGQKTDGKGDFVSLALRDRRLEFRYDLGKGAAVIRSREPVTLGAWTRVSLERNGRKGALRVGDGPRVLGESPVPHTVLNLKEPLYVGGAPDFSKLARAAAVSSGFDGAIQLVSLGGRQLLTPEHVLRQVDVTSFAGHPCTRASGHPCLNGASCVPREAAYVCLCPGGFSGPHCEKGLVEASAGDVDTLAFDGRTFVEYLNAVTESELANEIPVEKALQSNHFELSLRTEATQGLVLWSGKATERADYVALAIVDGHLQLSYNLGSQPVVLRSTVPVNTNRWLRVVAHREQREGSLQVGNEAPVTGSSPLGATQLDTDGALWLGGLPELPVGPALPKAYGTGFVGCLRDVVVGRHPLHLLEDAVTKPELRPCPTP

[3] = biological target: T3, neurotrypsin-resistant human agrin C44 y4z0K/A
T3 chain: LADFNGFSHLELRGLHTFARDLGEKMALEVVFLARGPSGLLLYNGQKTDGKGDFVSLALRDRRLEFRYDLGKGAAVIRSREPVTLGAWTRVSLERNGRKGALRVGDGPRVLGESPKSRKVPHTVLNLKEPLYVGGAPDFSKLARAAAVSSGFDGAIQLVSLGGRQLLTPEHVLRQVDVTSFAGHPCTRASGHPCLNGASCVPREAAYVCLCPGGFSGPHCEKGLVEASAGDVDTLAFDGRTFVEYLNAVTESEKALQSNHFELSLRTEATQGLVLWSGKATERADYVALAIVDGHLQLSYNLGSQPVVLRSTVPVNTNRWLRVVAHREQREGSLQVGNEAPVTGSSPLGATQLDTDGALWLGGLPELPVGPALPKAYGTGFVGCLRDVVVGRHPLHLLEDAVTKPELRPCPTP

[4] = biological target: T4, neurotrypsin-resistant human agrin C44 y4z8K/A with N-terminal His8 tag (C44K/A)
T4 chain: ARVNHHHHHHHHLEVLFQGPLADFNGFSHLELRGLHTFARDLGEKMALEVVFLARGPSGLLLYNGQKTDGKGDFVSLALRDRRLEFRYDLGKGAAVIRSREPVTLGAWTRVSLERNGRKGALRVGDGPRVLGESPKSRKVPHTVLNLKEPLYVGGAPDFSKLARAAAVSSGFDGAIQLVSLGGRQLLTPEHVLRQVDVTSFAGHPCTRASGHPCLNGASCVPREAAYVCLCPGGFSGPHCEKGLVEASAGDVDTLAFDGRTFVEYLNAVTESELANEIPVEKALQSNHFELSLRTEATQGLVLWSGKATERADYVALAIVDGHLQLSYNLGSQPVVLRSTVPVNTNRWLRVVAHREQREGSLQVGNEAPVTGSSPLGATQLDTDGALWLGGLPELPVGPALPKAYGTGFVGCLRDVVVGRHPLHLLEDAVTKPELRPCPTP

[5] = biological target: T5, neurotrypsin-resistant mouse agrin C44 y0z8K/A (m)
T5 chain: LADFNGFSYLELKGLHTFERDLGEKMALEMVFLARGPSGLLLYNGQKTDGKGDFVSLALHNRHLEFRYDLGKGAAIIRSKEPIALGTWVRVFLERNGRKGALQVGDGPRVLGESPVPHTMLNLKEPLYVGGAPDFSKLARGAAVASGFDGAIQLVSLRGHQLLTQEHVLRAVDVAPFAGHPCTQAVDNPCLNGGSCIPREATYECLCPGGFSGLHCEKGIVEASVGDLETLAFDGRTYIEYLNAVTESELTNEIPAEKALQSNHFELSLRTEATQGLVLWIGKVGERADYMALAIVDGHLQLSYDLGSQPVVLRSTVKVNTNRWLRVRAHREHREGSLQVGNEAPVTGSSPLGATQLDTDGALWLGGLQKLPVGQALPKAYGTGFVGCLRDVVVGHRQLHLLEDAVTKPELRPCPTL

[6] = biological target: T6, neurotrypsin-resistant mouse agrin C44 y4z8K/A (m)
T6 chain: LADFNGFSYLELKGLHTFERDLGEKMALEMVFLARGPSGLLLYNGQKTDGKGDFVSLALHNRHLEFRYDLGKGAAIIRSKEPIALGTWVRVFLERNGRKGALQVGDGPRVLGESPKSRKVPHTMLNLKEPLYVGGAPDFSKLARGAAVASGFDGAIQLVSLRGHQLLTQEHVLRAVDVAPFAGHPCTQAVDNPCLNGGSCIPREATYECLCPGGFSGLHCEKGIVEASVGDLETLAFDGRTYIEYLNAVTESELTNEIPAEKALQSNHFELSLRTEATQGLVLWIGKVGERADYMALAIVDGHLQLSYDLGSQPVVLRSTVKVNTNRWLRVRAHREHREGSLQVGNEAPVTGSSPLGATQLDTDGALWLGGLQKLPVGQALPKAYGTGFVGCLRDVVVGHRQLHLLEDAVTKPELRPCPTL

B1: human neurotrypsin (protein)
chain: FDSVLNDSLHHSHRHSPPAGPHYPYYLPTQQRPPRTRPPPPLPRFPRPPRALPAQRPHALQAGHTPRPHPWGCPAGEPWVSVTDFGAPCLRWAEVPPFLERSPPASWAQLRGQRHNFCRSPDGAGRPWCFYGDARGKVDWGYCDCRHGSVRLRGGKNEFEGTVEVYASGVWGTVCSSHWDDSDASVICHQLQLGGKGIAKQTPFSGLGLIPIYWSNVRCRGDEENILLCEKDIWQGGVCPQKMAAAVTCSFSHGPTFPIIRLAGGSSVHEGRVELYHAGQWGTVCDDQWDDADAEVICRQLGLSGIAKAWHQAYFGEGSGPVMLDEVRCTGNELSIEQCPKSSWGEHNCGHKEDAGVSCTPLTDGVIRLAGGKGSHEGRLEVYYRGQWGTVCDDGWTELNTYVVCRQLGFKYGKQASANHFEESTGPIWLDDVSCSGKETRFLQCSRRQWGRHDCSHREDVSIACYPGGEGHRLSLGFPVRLMDGENKKEGRVEVFINGQWGTICDDGWTDKDAAVICRQLGYKGPARARTMAYFGEGKGPIHVDNVKCTGNERSLADCIKQDIGRHNCRHSEDAGVICDYFGKKASGNSNKESLSSVCGLRLLHRRQKRIIGGKNSLRGGWPWQVSLRLKSSHGDGRLLCGATLLSSCWVLTAAHCFKRYGNSTRSYAVRVGDYHTLVPEEFEEEIGVQQIVIHREYRPDRSDYDIALVRLQGPEEQCARFSSHVLPACLPLWRERPQKTASNCYITGWGDTGRAYSRTLQQAAIPLLPKRFCEERYKGRFTGRMLCAGNLHEHKRVDSCQGDSGGPLMCERPGESWVVYGVTSWGYGCGVKDSPGVYTKVSAFVPWIKSVTKL
proteolytic digestion of the agrin fragment by human neurotrypsin, SDS-PAGE (Sypro ruby); control substrate with intact β-cleavage site, cleavage implied [1]: The mutation K to A in the β-cleavage site efficiently abolishes a cleavage of the agrin fragment
proteolytic digestion by human neurotrypsin, SDS-PAGE (FIG. 11) [2]: the C44K/A-fragments as shown in the FIGS. 2b and 7-10 are not digested by neurotrypsin
proteolytic digestion by human neurotrypsin, SDS-PAGE (FIG. 11) [3]: the C44K/A-fragments as shown in the FIGS. 2b and 7-10 are not digested by neurotrypsin
proteolytic digestion by human neurotrypsin, SDS-PAGE (FIG. 11) [4]: the C44K/A-fragments as shown in the FIGS. 2b and 7-10 are not digested by neurotrypsin
proteolytic digestion of the agrin fragment by human neurotrypsin, SDS-PAGE (Sypro ruby) [4]: The mutation K to A in the β-cleavage site efficiently abolishes a cleavage of the agrin fragment
proteolytic digestion by human neurotrypsin, SDS-PAGE (FIG. 11) [5]: the C44K/A-fragments as shown in the FIGS. 2b and 7-10 are not digested by neurotrypsin
proteolytic digestion by human neurotrypsin, SDS-PAGE (FIG. 11) [6]: the C44K/A-fragments as shown in the FIGS. 2b and 7-10 are not digested by neurotrypsin
